The record followed here is patent US20170183403A1 (UNIVERSIT T Z RICH, published 2017).

The target of one test is T1, murine IL-2 (mouse, UniProt P04351 21-169).
T1 construct: also called mouse IL-2; mIL-2
T1 sequence (looked up): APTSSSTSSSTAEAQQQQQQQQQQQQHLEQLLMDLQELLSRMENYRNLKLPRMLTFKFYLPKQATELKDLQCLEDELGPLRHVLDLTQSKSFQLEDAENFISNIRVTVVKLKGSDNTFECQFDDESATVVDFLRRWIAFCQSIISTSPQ
The test is described as follows: SPR, NARA1 amine-coupled to a GLM chip, mouse IL-2 as analyte at 10, 3.3, 1.1, 0.37, 0.123 and 0.041 nM.

The target in another test is T2, human interleukin-2 (human, UniProt P60568 21-153).
T2 construct: also called hIL-2; human IL-2
T2 sequence (P60568 21-153 limits assumed): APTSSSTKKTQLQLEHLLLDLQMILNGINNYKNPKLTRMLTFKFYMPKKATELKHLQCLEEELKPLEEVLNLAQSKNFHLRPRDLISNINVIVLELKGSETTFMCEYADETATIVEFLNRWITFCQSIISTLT
The test is described as follows: SPR, antibody amine-coupled on GLM chip, hIL-2 in solution. How it is done:
For this experiment an amine coupling GLM chip was used. The activation of the carboxylic acid groups in the chip was done using a mix of 1-ethyl-3-3-dimethylaminopropyl carbodiimide hydrochlorid (EDC at 0.2 M) and sulfo N-hydroxysulfosuccinimids (s_NHS at 0.05M) at […] for 420 seconds (s). […] Deactivation was followed adding ethanolamine HCl at […] for 300 s. Finally human IL-2 was added at different concentrations (starting from 100 nM and followed by three-fold dilutions) at […], 600 s association, and 240 s dissociation.
In order to characterize the binding properties of the anti-human IL-2 mAbs the binding to human interleukin-2 was tested with surface plasmon resonance binding assays.

A further test concerns the target T3, Reference peptide no. 10.
T3 construct: hIL-2 15-mer, first library, on microarray; also called peptide 10
T3 peptide: INNYKNPKLTRMLTF
In words: peptide microarray (RepliTope), Ala mutagenesis set.

In the next test the target is T4, Reference peptide no. 45.
T4 construct: second library: peptide 13 with F(62) to Ala; also called peptide 45
T4 peptide: TRMLTAKFYMPKKAT
The test is described as above.

B1: NARA1 (antibody, mouse IgG2a, kappa, V domains shown)
VH: QVQLQQSGAELVRPGTSVKVSCKASGYAFTNYLIEWVKQRPGQGLEWIGVINPGSGGTNYNEKFKGKATLTADKSSSTAYMQLSSLTSDDSAVYFCARWRGDGYYAYFDVWGAGTTVTVSS
VL: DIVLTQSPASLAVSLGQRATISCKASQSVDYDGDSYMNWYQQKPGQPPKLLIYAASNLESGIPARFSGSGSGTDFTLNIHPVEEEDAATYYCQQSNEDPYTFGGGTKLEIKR
notes: Mouse monoclonal from hybridoma; Isotype controls used were mouse IgG2a; also called anti-IL2 (NARA1) antibody; monoclonal antibody NARA1
For orientation: Kd means the free concentration of one partner at which half of the binding sites on the other are occupied at equilibrium, for simple one-to-one binding. The term koff denotes the rate constant with which the complex falls apart. Low readings indicate slow dissociation, high ones fast dissociation. Take B1: the binding result with murine IL-2 was “no binding (tested: 10 nM)”. Moreover, in the test with human interleukin-2, binding was put at a Kd of 1.2 nM and the koff was 2.08e-05 s⁻¹. Further, the “signal intensity after subtraction of control signal” value with Reference peptide no. 10 came out at 20900 AU. Further, the “signal intensity after subtraction of control signal” value with Reference peptide no. 45 amounted to 0 AU.
